In assay [1] the target is T1, extracellular domain (ECD) of human αKlotho, amino acids E34-S981 with C-terminal 6-His tag (R&D Systems … (human, UniProt Q9UEF7 34-981)).
T1 construct: range 34-981; also called αKlotho (aa34-981); target antigen
T1 sequence: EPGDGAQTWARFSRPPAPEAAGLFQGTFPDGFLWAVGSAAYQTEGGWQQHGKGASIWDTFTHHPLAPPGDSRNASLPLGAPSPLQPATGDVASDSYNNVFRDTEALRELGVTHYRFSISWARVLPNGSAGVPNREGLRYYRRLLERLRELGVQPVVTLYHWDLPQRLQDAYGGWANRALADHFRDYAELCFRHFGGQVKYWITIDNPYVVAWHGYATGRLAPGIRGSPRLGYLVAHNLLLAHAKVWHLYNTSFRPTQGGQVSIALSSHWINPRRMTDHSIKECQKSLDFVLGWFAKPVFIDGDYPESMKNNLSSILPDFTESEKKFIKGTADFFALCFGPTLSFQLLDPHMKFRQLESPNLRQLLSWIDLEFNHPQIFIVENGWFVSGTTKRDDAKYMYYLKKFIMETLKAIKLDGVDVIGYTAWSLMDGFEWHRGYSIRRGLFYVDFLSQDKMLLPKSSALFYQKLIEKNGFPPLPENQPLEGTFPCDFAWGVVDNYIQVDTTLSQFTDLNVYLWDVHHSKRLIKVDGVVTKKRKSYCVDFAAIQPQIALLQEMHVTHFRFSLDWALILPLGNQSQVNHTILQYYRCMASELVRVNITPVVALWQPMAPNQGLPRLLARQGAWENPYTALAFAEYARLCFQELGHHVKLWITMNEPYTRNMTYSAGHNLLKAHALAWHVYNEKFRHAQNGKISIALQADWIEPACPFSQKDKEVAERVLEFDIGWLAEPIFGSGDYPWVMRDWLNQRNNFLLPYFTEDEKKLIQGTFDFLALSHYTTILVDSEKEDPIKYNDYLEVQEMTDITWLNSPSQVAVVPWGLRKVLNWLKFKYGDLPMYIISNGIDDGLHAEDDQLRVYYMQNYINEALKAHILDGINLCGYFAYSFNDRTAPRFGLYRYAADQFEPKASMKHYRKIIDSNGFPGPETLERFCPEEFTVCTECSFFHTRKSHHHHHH
Briefly: SPR, Fab captured by anti-H+L antibody, αKlotho injected. On the procedure: Affinity estimates for each of the antibodies were determined by surface plasmon resonance (SPR). Fabs were immobilized using an anti-H+L antibody and serial dilutions of αKlotho were injected.

A further assay has as its target T2, mouse αKlotho (mouse, UniProt O35082 35-982).
T2 construct: also called Mu aKL
T2 sequence (looked up): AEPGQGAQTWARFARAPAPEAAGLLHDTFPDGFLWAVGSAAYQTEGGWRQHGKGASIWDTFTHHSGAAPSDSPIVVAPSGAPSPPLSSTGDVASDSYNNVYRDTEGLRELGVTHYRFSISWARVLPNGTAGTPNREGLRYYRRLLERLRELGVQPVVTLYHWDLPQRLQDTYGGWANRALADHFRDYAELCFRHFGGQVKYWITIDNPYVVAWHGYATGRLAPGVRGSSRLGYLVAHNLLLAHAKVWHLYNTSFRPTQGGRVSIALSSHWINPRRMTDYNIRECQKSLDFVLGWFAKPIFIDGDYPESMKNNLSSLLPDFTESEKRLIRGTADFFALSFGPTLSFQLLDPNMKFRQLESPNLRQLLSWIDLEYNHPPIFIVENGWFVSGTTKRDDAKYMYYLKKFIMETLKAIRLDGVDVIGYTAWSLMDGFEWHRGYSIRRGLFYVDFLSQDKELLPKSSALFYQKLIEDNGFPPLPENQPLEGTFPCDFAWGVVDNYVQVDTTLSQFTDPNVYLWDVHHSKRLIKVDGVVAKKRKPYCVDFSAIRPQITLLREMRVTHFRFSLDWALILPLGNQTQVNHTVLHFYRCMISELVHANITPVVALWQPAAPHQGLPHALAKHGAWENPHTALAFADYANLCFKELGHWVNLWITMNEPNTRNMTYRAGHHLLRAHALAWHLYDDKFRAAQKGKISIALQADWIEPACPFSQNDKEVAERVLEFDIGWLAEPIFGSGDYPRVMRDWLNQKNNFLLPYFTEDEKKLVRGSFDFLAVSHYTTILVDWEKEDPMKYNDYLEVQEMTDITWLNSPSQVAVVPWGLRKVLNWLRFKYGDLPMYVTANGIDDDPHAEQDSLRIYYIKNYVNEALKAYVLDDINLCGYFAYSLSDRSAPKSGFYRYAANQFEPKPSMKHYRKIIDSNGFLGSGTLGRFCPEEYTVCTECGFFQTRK
Briefly: SPR (ProteOn XPR36), Fab captured by anti-IgG(H+L), mouse αKlotho injected in serial dilutions, Langmuir fit. The method, then:
Estimated affinities against human and mouse antigen for select αKlotho Fabs were obtained by surface plasmon resonance on a ProteOn XPR36 (FIG. 17). Fabs were captured using an anti-IgG(H+L) antibody and serial dilutions of αKlotho were injected. Binding curves were fitted to the Langmuir model. (A) Determined Kon, Koff and KD values. (B) and (C) Binding curves for human and mouse antigen respectively.

The text below walks through data of patent US20190041402A1 (GOVERNING COUNCIL OF THE UNIVERSITY OF TORONTO, published 2019).

B1: sb106 Fab (Fab, V domains shown)
VH: EVQLVESGGGLVQPGGSLRLSCAASGFNISYYSIHWVRQAPGKGLEWVAYISPSYGYTSYADSVKGRFTISADTSKNTAYLQMNSLRAEDTAVYYCARYYVYASHGWAGYGMDYWGQGTLVTVSS
VL: DIQMTQSPSSLSASVGDRVTITCRASQSVSSAVAWYQQKPGKAPKLLIYSASSLYSGVPSRFSGSRSGTDFTLTISSLQPEDFATYYCQQAGYSPITFGQGTKVEIKR
notes: also called Fsb106; clone 48
As to B1, binding in assay [1] was characterised by a dissociation constant (Kd) of 1.9 nM. In the assay with mouse αKlotho, this molecule came in with a Kd of 0.784 nM, a koff of 0.000159 s⁻¹ and a kon of 202000 M⁻¹ s⁻¹.
